The nature of series [1]: Thermal denaturation monitored by circular dichroism (220 nm) as a function of temperature and CaCl2 concentration. The class given is physicochemical. Here is the method:
The effect of CaCl2 on the stability of the ADAM33 N231Q catalytic domain as determined by thermal denaturation: The effect of the concentration of CaCl2 on the retention of the secondary structure of the ADAM33 N231Q catalytic domain was monitored by circular dichroism (λ220 nm) as a function of temperature. A parallel study was performed replacing the CaCl2 with NaCl to control for the effect of the corresponding increase in ionic strength. The ADAM33 N231Q catalytic domain was purified as described above and then diluted to 0.2 mg/ml. The sample was then dialyzed against 25 mM Hepes, pH 7.5, 5% glycerol overnight. The temperature dependent protein denaturation was performed using a JASCO 810 spectropolarimeter under the following conditions: • Protein concentration: 0.2 mg/ml (based on a BioRad Protein Assay) • Cell length: 0.1 cm • Monitor wavelength: 220 nm • Temperature slope: 2° C./min • Measurement range: 20-80° C.
Therefore, greater than 10 μM CaCl2, and preferably between 0.3-100 mM CaCl2 should be included to maintain the stability of this protein.

Series [2] is described as follows: Storage stability of purified protein (N-terminal sequencing, mass spectrometry, enzymatic assay). It counts as physicochemical. Particulars: 4° C.; expression induced with 0.5 mM CuSO4, purified as complex of pro and catalytic domains. Here is the method:
The Ni-NTA column was washed with 15-20 CV of buffer C until a stable baseline was achieved, and the protein was eluted with 250 mM imidazole in buffer C. The eluted protein was concentrated to 5-15 mg/ml, and then applied to a SUPERDEX-75 gel filtration column equilibrated with buffer GF (25 mM HEPES, pH 7.5, 150 mM NaCl, 10% glycerol, 50 mM imidazole). Fractions corresponding to the monomer of ADAM33 were pooled, and diluted to 0.3 mg/ml, flash-frozen in liquid nitrogen, and stored at −80° C. […] When used for crystallography, the frozen protein was thawed on ice and concentrated to 10 mg/ml using Ultrafree®-15 Centrifugation Filter Device (Millipore, Bedford, Mass.). The thawed protein was immediately subjected to crystallization trials. Using this protocol a total of 1-9 mg of ADAM33 N231Q comprising the amino acid sequence of SEQ ID NO: 8 and SEQ ID NO: 36 (the C-Terminal Ser-Gly His6 Tag) was obtained from 1 liter of conditioned medium. 5 mM CaCl2 is preferably included throughout the purification process. It is also preferred that 5 mM CaCl2 is retained in the storage buffer.
After designing an appropriate DNA construct, the expression of the ADAM33 catalytic domain in an eukaryotic cell line needed to be optimized. […] However, under these induction conditions, Cu^2+ readily binds to the C-terminal His6 Tag. […]

B1: ADAM33 N231Q: modified human ADAM33 catalytic domain, Asn231 replaced by glutamine (SEQ ID NO: 8) with C-terminal Ser-Gly His6 Tag (protein)
chain: EARRTRKYLELYIVADHTLFLTRHRNLQHTKQRLLEVANYVDQLLRTLDIQVALTGLEVWTERDRSRVTQDANATLWAFLQWRRGLWAQRPHDSAQLLTGRAFQGATVGLAPVEGMCRAESSGGVSTDHSELPIGAAATMAHEIGHSLGLSHDPDGCCVEAAAESGGCVMAAATGHPFPRVFSACSRRQLRAFFRKGGGACLSNAPSGHHHHHH
modifications: C-terminal Ser-Gly His6 tag; homo sapiens
B1: the “ΔDenaturation Temp.” value in series [1] (CaCl2 0 mM) is 0.0 °C; in series [1] (CaCl2 0.003 mM vs 0 mM) it was 7.1 °C; in series [1] (CaCl2 0.03 mM vs 0 mM), 9.4 °C; in series [1] (CaCl2 0.3 mM vs 0 mM), 10.4 °C; in series [1] (CaCl2 0.5 mM vs 0 mM) it was 13.4 °C; in series [1] (CaCl2 1.0 mM vs 0 mM) it was 14.4 °C. For the same molecule, the “ΔDenaturation Temp.” value in series [1] (CaCl2 2.5 mM vs 0 mM) was found to be 17.1 °C; in series [1] (CaCl2 5.0 mM vs 0 mM) it was 18.0 °C; in series [1] (CaCl2 10.0 mM vs 0 mM) it was 19.8 °C; in series [1] (CaCl2 25.0 mM vs 0 mM), 21.1 °C; in series [1] (CaCl2 50.0 mM vs 0 mM) it was 22.1 °C; in series [1] (CaCl2 100.0 mM vs 0 mM), 21.7 °C. The “Denaturation Temp.” value in series [1] (CaCl2 0 mM, 0.2 mg/ml protein, 25 mM Hepes pH 7.5, 5% glycerol) turned out to be 43.5 °C; in series [1] (CaCl2 0.003 mM), 50.6 °C; in series [1] (CaCl2 0.03 mM), 52.9 °C; in series [1] (CaCl2 0.3 mM) it was 53.9 °C; in series [1] (CaCl2 0.5 mM), 56.9 °C; in series [1] (CaCl2 1.0 mM), 57.9 °C. In addition, the “Denaturation Temp.” value in series [1] (CaCl2 2.5 mM) was determined as 60.6 °C; in series [1] (CaCl2 5.0 mM), 61.5 °C; in series [1] (CaCl2 10.0 mM) it was 63.3 °C; in series [1] (CaCl2 25.0 mM) it was 64.6 °C; in series [1] (CaCl2 50.0 mM), 65.6 °C; in series [1] (CaCl2 100.0 mM) it was 65.2 °C. For the same molecule, in series [1] (equivalent ionic strength), the “stability in the presence of CaCl2 relative to NaCl” value is “significantly greater stability”.

B2: wild type (WT) ADAM33: ADAM33 protein fragment with pre, pro and wild type catalytic domain and Ser-Gly-His6 Tag expressed in Drosophila S2 cells (SEQ ID NO: 2) (protein)
chain: MKLCILLAVVAFVGLSLGRSPWPGVPLQGHIPGQPVTPHWVLDGQPWRTVSLEEPVSKPDMGLVALEAEGQELLLELEKNHRLLAPGYIETHYGPDGQPVVLAPNHTDHCHYQGRVRGFPDSWVVLCTCSGMSGLITLSRNASYYLRPWPPRGSKDFSTHEIFRMEQLLTWKGTCGHRDPGNKAGMTSLPGGPQSRGRREARRTRKYLELYIVADHTLFLTRHRNLNHTKQRLLEVANYVDQLLRTLDIQVALTGLEVWTERDRSRVTQDANATLWAFLQWRRGLWAQRPHDSAQLLTGRAFQGATVGLAPVEGMCRAESSGGVSTDHSELPIGAAATMAHEIGHSLGLSHDPDGCCVEAAAESGGCVMAAATGHPFPRVFSACSRRQLRAFFRKGGGACLSNAP
modifications: Ser-Gly-His6 tag; homo sapiens
As for B2, the “stability of purified protein” value in series [2] is listed as “labile”.

The values are drawn from US7285408B2, “Crystalline form of an n231 mutant catalytic domain of ADAM33 and methods of use thereof” (Schering Corporation, priority 2002, dated 2007).
